The target in experiment [1] is T1, Full-length murine NT5E (recombinant) (murine, UniProt Q61503 29-552).
T1 construct: also called mNT5E
T1 sequence: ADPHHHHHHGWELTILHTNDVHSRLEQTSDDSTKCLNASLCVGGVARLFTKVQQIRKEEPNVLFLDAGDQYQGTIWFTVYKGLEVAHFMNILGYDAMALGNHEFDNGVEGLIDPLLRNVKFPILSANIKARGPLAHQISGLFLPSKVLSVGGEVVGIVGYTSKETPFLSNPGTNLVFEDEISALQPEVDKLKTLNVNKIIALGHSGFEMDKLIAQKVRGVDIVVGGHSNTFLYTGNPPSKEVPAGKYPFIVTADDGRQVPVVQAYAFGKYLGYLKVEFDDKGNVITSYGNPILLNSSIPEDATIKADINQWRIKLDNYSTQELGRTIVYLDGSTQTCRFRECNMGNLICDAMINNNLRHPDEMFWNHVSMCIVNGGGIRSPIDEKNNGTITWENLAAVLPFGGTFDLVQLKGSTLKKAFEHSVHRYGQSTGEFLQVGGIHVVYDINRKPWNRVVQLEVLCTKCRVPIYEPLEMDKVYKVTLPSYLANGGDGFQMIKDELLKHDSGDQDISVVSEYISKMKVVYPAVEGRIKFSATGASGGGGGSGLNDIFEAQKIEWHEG
Nature of the experiment: SPR, His-captured NT5E, 1 mM ATP; SPR, 1 mM ATP. How it is done: All SPR experiments were performed at 25° C. using MASS-1 (Bruker) instrument. hNT5E, mNT5E and cNT5E were immobilized onto a nitrilotriacetic acid (NTA) sensor chip via His-tag. For kinetic experiments, after ligand immobilization, 2-fold serial dilutions of the Fabs were injected. After double-reference subtraction data were analyzed with BiaEvaluation (GE Healthcare) or Sierra Analyser (Bruker) software. The experiments were carried in buffers in presence and absence of 1 mM ATP to compare the kinetic parameters of the Fabs binding to closed and open form of NT5E.

In experiment [2] the target is T2, murine NT5E expressed on 4T1 cells (murine, UniProt Q61503 29-551).
T2 construct: whole, on cells; also called mouse NT5E-expressing 4T1 cells
T2 sequence (looked up): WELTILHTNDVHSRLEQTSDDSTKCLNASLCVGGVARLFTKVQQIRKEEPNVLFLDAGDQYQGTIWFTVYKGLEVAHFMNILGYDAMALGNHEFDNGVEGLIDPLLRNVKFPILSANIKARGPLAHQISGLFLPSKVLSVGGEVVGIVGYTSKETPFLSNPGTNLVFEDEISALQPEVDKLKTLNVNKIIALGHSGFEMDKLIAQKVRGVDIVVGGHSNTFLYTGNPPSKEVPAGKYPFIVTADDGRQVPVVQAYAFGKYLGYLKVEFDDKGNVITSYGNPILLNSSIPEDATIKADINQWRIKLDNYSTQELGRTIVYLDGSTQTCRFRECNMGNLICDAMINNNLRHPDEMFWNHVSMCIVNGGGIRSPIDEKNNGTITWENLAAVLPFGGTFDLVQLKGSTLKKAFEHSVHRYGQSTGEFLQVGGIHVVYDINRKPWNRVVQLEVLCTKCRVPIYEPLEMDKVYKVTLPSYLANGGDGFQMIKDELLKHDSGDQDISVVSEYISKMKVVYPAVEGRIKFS
Nature of the experiment: flow cytometry on 4T1 cells, 1 mM ATP. The method, then:
(§1) Human MDA-MB-231 cells and murine 4T1 cells were grown to 90% confluency, detached with 5 mM EDTA for 15 min at 37° C. and then resuspended in 37° C. lx PBS (#10010031, Gibco) supplemented with 1% FBS and 1OpM ZnCl2. Separate working buffers (WB) of PBS and 1% FBS with or without fixed nucleotide concentrations were used throughout all washing steps to maintain constant condition. In 96-well plates (#3799, Costar), 0.2×10⁶ cells were added per well. The plates were spun at 500×g for 5 min and the supernatant was removed. Anti-NT5E antibodies were diluted to the desired concentration in 100 μL WB, added to the cells and the plates were incubated for 20 min at 37° C. Plates were spun and cells were washed twice with WB then spun a second time. Cells were stained with 100 μL of secondary antibody (Alexa Fluor 647 AffiniPure Goat Anti-Human IgG, F(ab′)2 fragment specific, #109-605-006, Jackson, 1:200) dilution and plates were incubated for 20 min at 37° C. Cells were washed twice with WB then fixed on ice with WB supplemented with 0.5% PFA. Fixing solution was removed by centrifugation and cells were resuspended in cold 1× PBS. Samples were analyzed by flow cytometry using CytoFLEX (Beckman Coulter) and mean fluorescence intensity (MFI) data was extracted using FlowJo software. Resulting binding data was plotted using OriginLab.
In general terms: A flow cytometer gives signals particle by particle.

Experiment [3] concerns the target T2, murine NT5E expressed on 4T1 cells. Nature of the experiment: flow cytometry on 4T1 cells, 1 mM ATP; +ATP (1 mM), 4T1 cells. The method, then:
as §1

In experiment [4] the target is T1, Full-length murine NT5E (recombinant). Nature of the experiment: ELISA, biotinylated NT5E on neutravidin plate, 1 mM ATP. How it is done: (B) Protein ELISA: Protein-based multipoint ELISA was performed to estimate the affinity of the generated Fabs and IgGs to NT5E. The binding of the Fabs and IgGs to the closed form of NT5E were determined in ELISA buffer (HBST) supplemented with 10 μM zinc chloride and 1 mM ATP while the binding of the same to open form of NT5E were determined in ELISA buffer (HBST) without any cofactors. A fixed concentration of the immobilized target (50 nM) on ELISA plate was incubated with 3-fold serial dilutions of the purified Fabs and IgGs starting from 3 μM and 1 μM respectively for 15 min. The plates were washed and were subsequently incubated with a secondary HRP-conjugated anti-protein L monoclonal antibody (#32420, ThermoFisher, 1:6000 dilution). As with phage ELISA, the plates were again washed, developed with TMB substrate and quenched with 1.0 M HCl, and absorbance (Abs450) was determined. To determine the affinity (EC50), the data were fitted with a non-linear, 4-parameter logistic curve in OriginLab.
On the technique in general: ELISA stands for enzyme-linked immunosorbent assay.

For orientation: Kd means the equilibrium constant for the complex coming apart. As usually defined, the koff is the first-order rate constant of dissociation. As usually defined, the kon is the second-order rate constant of association. Usually EC50 stands for the concentration giving half of the maximal effect.

B1: 1789 Fab (Fab, V domains shown)
VH: EVQLVESGGGLVQPGGSLRLSCAASGFNVSYSSIHWVRQAPGKGLEWVASISSSSGYTYYADSVKGRFTISADTSKNTAYLQMNSLRAEDTAVYYCARNYWGWYPFYYFAFDYWGQGTLVTV
VL: DIQMTQSPSSLSASVGDRVTITCRASQSVSSAVAWYQQKPGKAPKLLIYSASSLYSGVPSRFSGSRSGTDFTLTISSLQPEDFATYYCQQGWDYPITFGQGTKVEIKR
Consider B1, for which, in experiment [1], the equilibrium dissociation constant (Kd) worked out at 0.16 µM, the off-rate (koff) came to 0.014 s⁻¹ and the on-rate (kon) came to 85000 M⁻¹ s⁻¹.

B2: 1789 IgG (antibody, V domains shown)
VH: EVQLVESGGGLVQPGGSLRLSCAASGFNVSYSSIHWVRQAPGKGLEWVASISSSSGYTYYADSVKGRFTISADTSKNTAYLQMNSLRAEDTAVYYCARNYWGWYPFYYFAFDYWGQGTLVTVSS
VL: B1 VL
In the case of B2, the concentration giving a half-maximal response (EC50) was determined as 0.0373 µM in experiment [2], 0.037 µM in experiment [3] and 0.00114 µM in experiment [4].

The values above are taken from patent US20240199757A1 (UNIVERSITY OF CHICAGO, published 2024).
